This assay deals with dansyl-CaM (dansylated calmodulin), P0DP29. Put plainly: other fluorescence titration. The conditions noted are these: remark: other sources report otherwise.

Stoichiometry N data for 1 molecule are collected here from publication PMC6554723.

B1: purified recombinant RGS14 (Regulator of G Protein Signaling 14), O08773 1-544 (natural protein)
chain: MPGKPKHLGVPNGRMVLAVSDGELTSTSGSQAQGEGRGSSLSIHSLPSGPSSPFSTDEQPVASWAQSFERLLQDPRGLAYFTEFLKKEFSAENVTFWQACERFQQIPASDTKQLAQEAHNIYHEFLSSQALSPVNIDRQAWLSEEVLAQPRPDMFRAQQLQIFNLMKFDSYARFVKSPLYQECLLAEAEGRPLREPGSSHLGSPDTARKKPKLKPGKSLPLGVEELGQLPLAEGRPLRKSFRREMPGGAVNSALRRESQGSLNSSASLDLGFLAFVSSKSESHRKSLGSGEGESESRPGKYCCVYLPDGTASLALARPGLTIRDMLAGICEKRGLSLPDIKVYLVGKEQKALVLDQDCTVLADQEVRLENRITFQLELVGLERVVRISAKPTKRLQEALQPILAKHGLSLDQVVLHRPGEKQLVDLENLVSSVASQTLVLDTLPDAKTREASSIPPCRSQGCLPRTQTKDSHLPPLSSSLSVEDASGSTGKRQTCDIEGLVELLNRVQSSGAHDQRGLLRKEDLVLPEFLQLPSQRPGSQEAPP
modifications: here or on the partner: dansyl label (site not stated)
The stoichiometry N is a count of units in the complex or per binding partner. On to B1, for which the stoichiometry N worked out at 1.
